# Experimental data as given in publication PMC10025160, “Uncovering Zn^2+ as a cofactor of FAD-dependent Pseudomonas aeruginosa PAO1 D-2-hydroxyglutarate dehydrogenase” (The Journal of Biological Chemistry, 2023).
# B1: PaD2HGDH (Pseudomonas aeruginosa PAO1) (protein)
# chain: MTREALIESLKPLVEPGKLLDDAASLDAYGKDWTKHFAPAPLAIVFPKSVEQVQAIVRWANQHKVGLVPSGGRTGLSAAAVAANGEVVVAFDYMNRILDFNAFDRTVVCQPGVVTKQLQTFAEENGLYYPVDFASSGSSQIGGNIGTNAGGIKVIRYGMTRNWVAGMKVVTGKGDLLELNKDLIKNATGYDMRQLFIGAEGTLGFVVEATMRLERTPKNLTAMVLGTPDFDSIMPVLHAFQSKLDLTAFEFFSDKALAKVLARGDVPRAFETDCPFYALLEFEATTEEVANEALATFEHCVEQGWVLDGVMSQSEQQLQNLWKLREYISETISHWTPYKNDISVTVSRVPAFLKDIDAIVEANYPDFEVVWFGHIGDGNLHLNILKPENLGKDEFFAKCATVNKWVFETVEKYNGSISAEHGVGMTKRDYLTYTRSETEIAYMKALKAVFDPNGIMNPGKIFAE
# notes: wild type, His-tagged, pET20b(+), expressed in E. coli Rosetta(DE3)pLysS, Ni-NTA purified
# Substrate: O=C(O)C[C@@H](O)C(=O)O
# Test: initial rates, oxygen consumption (Oxy-32 electrode)
# Format: biochemical, Pseudomonas aeruginosa
# Conditions: E-Zn^2+ form (purified with 1 mM ZnCl2, Zn:protein about 2:1), 1 mM PMS (fixed), 25 mM NaPO4, pH 7.4, 25 °C, apparent
# From the text: initial rates, oxygen consumption (Oxy-32 electrode) on PaD2HGDH
protein,measurement,value
B1,Km,5.1 ± 0.4 mM
same,kcat,38 ± 1 s⁻¹
same,kcat/Km,7000 ± 500 M⁻¹ s⁻¹
